Results reported in PMC8282004.

Target: hACE2-K31N/K353H (human) (UniProt Q9BYF1)
Assay: flow cytometry on cells

Q: Which binding efficiency (percentage of GFP+ cells that bound RBD-Fc) does the source give for “recombinant SARS-CoV-2 spike RBD-Fc protein (from UniProt P0DTC2 319-524) (Fc fusion)” here?
A: The binding efficiency (percentage of GFP+ cells that bound RBD-Fc) was 7.86%.
